B1: 67-ori-top (ssDNA)
DNA: AAAATTTAAAAGAAGACACCAAATCAGATGCCGCCGGTCGCCGCCGGTAGGCGGGACTTCCGGTACA
B2: 67-ori-top/40-ori-bot (mixed)
DNA 1: B1 DNA
DNA 2: TGTACCGGAAGTCCCGCCTACCGGCGGCGACCGGCGGCAT

Biological target: NS1_Nuc WT (nuclease domain of NS1) (human parvovirus B19 (variant …, UniProt A0A097C0M3 2-176))
Assay: EMSA; 1 mM EDTA
Details: protein: recombinant, tags: His-SUMO removed by ULP1

| Binder | Kd (label: 5'-FAM, single strand) | Kd (label: 5'-FAM on 67-ori-top, partial duplex over NSBE1-NSBE4, top strand single-stranded elsewhere) |
| --- | --- | --- |
| B1 | 12.3 µM | – |
| B2 | – | ~1 µM |
